Patent US20250011363A1, “OPTIMIZED SHORTENED PEPTIDE THAT BINDS TO ACETYLCHOLINE RECEPTOR, AND USE THEREOF” (SKINMED CO., LTD., priority 2021, published 2025)

How the values were obtained:
acetylcholine receptor [1] = assay: SPR, AchR immobilized on chip
acetylcholine receptor [2] = assay: SPR, peptide at 10 uM, acetylcholine receptor immobilized on chip

Row | Binder | Binding affinity (relative to RRQRR) (relative value to the RRQRR sequence) (acetylcholine receptor [1]) | Binding affinity (RU) (acetylcholine receptor [2])
1 | KDTKR [5mer-646] | – | 16 RU
2 | RMKWK [5mer-644] | – | 24 RU
3 | KDSFK [5mer-948] | – | 18 RU
4 | KNKKR [5mer-648] | – | 15 RU
5 | RYEFK [5mer-944] | – | 25 RU
6 | KHDGR [5mer-643] | – | 28 RU
7 | RHKDK [5mer-645] | – | 20 RU
8 | KHTVK [5mer-647] | – | 29 RU
9 | ARRQRR | 129 | –
10 | KYPWR [5mer-946] | – | 32 RU
11 | RYEKR [5mer-945] | – | 23 RU
12 | KDKGK [5mer-943] | – | 12 RU
13 | KDWIR [5mer-947] | – | 27 RU

Other lines, results leading:

Row | Binding affinity (relative to RRQRR) (relative value to the RRQRR sequence) (acetylcholine receptor [1]) | Binding affinity (RU) (acetylcholine receptor [2]) | Binder
14 | 120 | – | RRQRRV
15 | 133 | – | PRRQRR
16 | 144 | – | LRRQRR
17 | 132 | – | GRRQRR
18 | 122 | – | RRQRRM
19 | 119 | – | MRRQRR
20 | 135 | – | VRRQRR
21 | 121 | – | IRRQRR
22 | 109 | – | RRQRRG
23 | 137 | – | RRQRRP
24 | 133 | – | RRQRRI
25 | 141 | – | RRQRRL
26 | 113 | – | RRQRRA
27 | 126 | – | RRQRRC
28 | 123 | – | CRRQRR
